Substrate: OCCCCCO
Assay: Reactions of horse liver ADH1E with 1,5-pentanediol and 5-hydroxypentanal
Type: biochemical
Conditions: pH 7.0; 25.0 °C

B1: horse liver ADH1E (Equus caballus) (protein)
chain: STAGKVIKCKAAVLWEEKKPFSIEEVEVAPPKAHEVRIKMVATGICRSDDHVVSGTLVTPLPVIAGHEAAGIVESIGEGVTTVRPGDKVIPLFTPQCGKCRVCKHPEGNFCLKNDLSMPRGTMQDGTSRFTCRGKPIHHFLGTSTFSQYTVVDEISVAKIDAASPLEKVCLIGCGFSTGYGSAVKVAKVTQGSTCAVFGLGGVGLSVIMGCKAAGAARIIGVDINKDKFAKAKEVGATECVNPQDYKKPIQEVLTEMSNGGVDFSFEVIGRLDTMVTALSCCQEAYGVSVIVGVPPDSQNLSMNPMLLLSGRTWKGAIFGGFKSKDSVPKLVADFMAKKFALDPLITHVLPFEKINEGFDLLRSGESIRTILTF
- Km: 21 mM
